One block for each substance: values may come before it.
Tests used:
Experiment in all cases: ITC
[1] = molecular target: AnkB exZZU T1324D (human)
[2] = molecular target: AnkB exZZU I964Q (human)
[3] = molecular target: AnkB ZU5N-ZU5C-UPA-DD tandem (ZZUD, aa 966-1535) (human)
[4] = molecular target: AnkB exZZU R1029E (human)
[5] = molecular target: AnkB exZZU F968A (human)
[6] = molecular target: AnkB exZZU (extension-ZU5N-ZU5C-UPA, aa 951-1443) (human)
[7] = molecular target: AnkG exZZUD (rat) (UniProt O70511)
Chain of UniProt O70511 (O70511 whole entry): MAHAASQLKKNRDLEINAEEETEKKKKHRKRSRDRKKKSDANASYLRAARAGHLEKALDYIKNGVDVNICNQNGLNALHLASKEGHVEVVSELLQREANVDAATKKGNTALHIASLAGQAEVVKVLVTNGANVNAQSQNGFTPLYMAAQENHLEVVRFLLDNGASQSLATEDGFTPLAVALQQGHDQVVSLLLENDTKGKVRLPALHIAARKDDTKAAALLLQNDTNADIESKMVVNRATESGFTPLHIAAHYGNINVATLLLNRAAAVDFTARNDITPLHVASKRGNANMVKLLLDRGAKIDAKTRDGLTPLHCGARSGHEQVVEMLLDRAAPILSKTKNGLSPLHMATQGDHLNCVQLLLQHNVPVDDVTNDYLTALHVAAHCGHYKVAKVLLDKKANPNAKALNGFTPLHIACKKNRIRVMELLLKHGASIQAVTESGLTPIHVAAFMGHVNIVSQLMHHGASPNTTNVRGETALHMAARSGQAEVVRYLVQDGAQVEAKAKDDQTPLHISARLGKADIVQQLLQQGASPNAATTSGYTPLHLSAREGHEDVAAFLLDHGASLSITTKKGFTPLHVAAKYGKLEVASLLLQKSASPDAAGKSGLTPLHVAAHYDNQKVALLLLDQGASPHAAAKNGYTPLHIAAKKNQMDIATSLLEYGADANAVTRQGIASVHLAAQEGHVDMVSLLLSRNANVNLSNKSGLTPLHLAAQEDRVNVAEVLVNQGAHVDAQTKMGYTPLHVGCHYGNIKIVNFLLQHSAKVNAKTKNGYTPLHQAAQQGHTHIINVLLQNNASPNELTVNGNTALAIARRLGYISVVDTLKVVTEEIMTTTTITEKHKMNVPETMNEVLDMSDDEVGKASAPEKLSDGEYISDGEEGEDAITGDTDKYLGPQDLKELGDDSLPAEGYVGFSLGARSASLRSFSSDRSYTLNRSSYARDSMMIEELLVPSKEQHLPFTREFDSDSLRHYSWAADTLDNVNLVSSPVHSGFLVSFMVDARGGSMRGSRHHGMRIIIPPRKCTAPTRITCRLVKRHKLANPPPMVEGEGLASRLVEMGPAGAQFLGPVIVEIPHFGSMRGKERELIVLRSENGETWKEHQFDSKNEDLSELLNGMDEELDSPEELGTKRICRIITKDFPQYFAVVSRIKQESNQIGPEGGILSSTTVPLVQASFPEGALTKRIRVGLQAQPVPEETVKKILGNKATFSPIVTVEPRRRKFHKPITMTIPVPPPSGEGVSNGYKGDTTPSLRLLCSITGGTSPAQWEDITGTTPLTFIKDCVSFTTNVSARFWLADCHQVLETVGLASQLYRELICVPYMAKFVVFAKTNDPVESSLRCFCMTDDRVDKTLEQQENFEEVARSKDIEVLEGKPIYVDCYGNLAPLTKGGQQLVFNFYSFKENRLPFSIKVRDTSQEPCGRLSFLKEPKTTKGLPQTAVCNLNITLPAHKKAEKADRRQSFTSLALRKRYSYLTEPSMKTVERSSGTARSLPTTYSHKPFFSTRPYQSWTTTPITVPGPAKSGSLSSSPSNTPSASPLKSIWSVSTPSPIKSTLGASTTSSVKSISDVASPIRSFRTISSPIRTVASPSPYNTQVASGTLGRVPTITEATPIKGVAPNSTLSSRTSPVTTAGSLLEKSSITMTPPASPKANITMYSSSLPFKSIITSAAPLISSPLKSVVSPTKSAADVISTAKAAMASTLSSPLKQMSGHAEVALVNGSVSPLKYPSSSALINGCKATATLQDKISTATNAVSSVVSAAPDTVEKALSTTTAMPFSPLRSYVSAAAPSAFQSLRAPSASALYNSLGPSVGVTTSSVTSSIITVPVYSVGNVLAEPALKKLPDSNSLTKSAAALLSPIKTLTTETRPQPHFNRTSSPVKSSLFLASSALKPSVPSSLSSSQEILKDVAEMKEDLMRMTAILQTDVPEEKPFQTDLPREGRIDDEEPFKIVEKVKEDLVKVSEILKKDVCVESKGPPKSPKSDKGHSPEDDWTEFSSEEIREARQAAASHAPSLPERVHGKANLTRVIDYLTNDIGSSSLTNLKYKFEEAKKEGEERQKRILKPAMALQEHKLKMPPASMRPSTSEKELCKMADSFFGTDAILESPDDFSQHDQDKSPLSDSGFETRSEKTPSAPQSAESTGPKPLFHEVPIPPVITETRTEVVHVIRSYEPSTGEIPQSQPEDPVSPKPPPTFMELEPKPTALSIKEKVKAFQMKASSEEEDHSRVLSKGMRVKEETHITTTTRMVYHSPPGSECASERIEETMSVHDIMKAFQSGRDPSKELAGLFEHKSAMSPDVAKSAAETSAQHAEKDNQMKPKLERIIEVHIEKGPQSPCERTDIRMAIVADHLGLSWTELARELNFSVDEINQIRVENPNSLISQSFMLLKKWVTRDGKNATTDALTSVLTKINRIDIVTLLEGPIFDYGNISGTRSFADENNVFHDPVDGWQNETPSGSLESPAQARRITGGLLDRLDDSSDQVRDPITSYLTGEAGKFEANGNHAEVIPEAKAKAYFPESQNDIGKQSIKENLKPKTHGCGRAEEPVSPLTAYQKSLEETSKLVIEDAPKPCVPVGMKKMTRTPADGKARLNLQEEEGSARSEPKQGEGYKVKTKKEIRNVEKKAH

fold decrease of binding against wild-type AnkB exZZU [1]: 5 fold
Substance: β4-spectrin spectrin repeats 13-15 (R13-15) (domain or fragment)

fold decrease of binding against wild-type AnkB exZZU [2]: 4 fold | Kd [3]: 4900 nM | fold decrease of binding against wild-type AnkB exZZU [4]: 5 fold | fold decrease of binding against wild-type AnkB exZZU [5]: > 10 fold | Kd [6]: 200 nM
Substance: β2-spectrin spectrin repeats 13-15 (R13-15) (domain or fragment)

fold stronger binding than AnkG ZZUD without the extension [7]: > 10 fold
Substance: β2-spectrin R13-16 (from UniProt Q62261 1-2363) (domain or fragment)

From doi:10.1101/2020.03.04.976142
